# T1: human integrin avb6 (human, UniProt P06756)
# T1 chain 1: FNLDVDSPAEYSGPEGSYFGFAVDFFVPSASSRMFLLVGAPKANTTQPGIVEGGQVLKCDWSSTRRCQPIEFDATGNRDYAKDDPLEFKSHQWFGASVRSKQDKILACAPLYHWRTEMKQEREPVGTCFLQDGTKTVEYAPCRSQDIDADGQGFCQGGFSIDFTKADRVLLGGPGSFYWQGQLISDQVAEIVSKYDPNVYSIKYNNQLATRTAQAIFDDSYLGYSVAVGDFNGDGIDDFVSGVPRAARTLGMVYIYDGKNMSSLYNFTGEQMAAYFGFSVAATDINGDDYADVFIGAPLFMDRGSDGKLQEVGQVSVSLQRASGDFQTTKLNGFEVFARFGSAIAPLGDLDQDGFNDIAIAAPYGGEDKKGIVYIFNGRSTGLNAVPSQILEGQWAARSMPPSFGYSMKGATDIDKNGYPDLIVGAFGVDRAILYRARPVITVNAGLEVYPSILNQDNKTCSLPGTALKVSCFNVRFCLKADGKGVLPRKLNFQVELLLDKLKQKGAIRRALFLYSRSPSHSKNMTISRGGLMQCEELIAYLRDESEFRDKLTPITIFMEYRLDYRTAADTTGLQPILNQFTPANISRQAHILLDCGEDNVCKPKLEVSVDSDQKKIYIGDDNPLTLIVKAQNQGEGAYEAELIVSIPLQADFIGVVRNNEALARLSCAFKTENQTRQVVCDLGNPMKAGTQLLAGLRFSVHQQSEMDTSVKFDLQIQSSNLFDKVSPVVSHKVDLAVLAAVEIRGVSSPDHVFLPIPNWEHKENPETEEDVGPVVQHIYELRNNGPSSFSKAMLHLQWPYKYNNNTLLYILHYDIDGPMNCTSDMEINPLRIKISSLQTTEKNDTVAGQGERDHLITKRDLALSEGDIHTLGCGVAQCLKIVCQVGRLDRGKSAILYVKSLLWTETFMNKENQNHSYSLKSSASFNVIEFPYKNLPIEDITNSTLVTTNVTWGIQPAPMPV
# T1 chain 2: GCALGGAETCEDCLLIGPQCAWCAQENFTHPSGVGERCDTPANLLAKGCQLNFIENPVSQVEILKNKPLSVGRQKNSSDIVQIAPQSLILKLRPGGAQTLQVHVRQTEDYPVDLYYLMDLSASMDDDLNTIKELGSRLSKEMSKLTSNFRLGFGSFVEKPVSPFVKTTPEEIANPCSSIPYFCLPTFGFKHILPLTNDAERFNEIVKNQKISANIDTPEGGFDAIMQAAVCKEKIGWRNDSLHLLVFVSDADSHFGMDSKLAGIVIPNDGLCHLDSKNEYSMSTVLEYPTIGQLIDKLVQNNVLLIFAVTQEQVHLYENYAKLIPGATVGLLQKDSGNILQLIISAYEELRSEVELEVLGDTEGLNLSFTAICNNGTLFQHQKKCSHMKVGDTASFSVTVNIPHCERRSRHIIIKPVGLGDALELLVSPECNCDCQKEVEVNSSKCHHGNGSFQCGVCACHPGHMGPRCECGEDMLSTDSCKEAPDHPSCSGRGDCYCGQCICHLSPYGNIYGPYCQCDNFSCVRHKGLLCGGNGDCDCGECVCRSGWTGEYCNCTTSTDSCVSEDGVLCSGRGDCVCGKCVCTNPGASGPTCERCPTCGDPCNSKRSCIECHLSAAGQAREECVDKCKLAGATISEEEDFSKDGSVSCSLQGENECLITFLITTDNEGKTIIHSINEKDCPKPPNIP
# T2: human integrin avb3 (human, UniProt P06756)
# T2 chain 1: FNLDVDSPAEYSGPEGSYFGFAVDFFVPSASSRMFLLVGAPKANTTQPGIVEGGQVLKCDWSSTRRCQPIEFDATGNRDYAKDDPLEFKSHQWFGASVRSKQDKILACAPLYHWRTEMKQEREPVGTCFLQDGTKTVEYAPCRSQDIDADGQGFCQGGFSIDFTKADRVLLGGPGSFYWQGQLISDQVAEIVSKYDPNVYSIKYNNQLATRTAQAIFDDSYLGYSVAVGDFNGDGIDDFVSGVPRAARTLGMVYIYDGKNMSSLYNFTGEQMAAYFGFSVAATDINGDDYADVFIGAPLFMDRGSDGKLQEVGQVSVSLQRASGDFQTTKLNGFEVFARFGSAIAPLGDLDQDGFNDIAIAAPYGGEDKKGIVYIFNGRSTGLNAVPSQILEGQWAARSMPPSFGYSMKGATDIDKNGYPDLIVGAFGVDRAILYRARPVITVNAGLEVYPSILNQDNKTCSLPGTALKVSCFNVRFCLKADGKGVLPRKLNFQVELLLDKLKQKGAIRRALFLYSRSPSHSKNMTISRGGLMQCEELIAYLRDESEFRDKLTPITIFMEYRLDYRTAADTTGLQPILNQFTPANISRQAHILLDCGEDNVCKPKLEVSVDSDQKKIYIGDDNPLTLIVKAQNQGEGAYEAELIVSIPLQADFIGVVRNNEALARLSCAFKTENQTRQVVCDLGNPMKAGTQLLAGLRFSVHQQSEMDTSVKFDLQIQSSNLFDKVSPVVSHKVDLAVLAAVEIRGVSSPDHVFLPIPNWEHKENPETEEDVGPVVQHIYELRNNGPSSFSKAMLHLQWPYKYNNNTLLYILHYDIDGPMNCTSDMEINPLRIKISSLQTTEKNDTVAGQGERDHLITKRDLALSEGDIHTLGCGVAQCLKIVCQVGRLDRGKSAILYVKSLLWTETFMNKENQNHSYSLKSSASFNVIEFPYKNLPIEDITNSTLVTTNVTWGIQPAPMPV
# T2 chain 2: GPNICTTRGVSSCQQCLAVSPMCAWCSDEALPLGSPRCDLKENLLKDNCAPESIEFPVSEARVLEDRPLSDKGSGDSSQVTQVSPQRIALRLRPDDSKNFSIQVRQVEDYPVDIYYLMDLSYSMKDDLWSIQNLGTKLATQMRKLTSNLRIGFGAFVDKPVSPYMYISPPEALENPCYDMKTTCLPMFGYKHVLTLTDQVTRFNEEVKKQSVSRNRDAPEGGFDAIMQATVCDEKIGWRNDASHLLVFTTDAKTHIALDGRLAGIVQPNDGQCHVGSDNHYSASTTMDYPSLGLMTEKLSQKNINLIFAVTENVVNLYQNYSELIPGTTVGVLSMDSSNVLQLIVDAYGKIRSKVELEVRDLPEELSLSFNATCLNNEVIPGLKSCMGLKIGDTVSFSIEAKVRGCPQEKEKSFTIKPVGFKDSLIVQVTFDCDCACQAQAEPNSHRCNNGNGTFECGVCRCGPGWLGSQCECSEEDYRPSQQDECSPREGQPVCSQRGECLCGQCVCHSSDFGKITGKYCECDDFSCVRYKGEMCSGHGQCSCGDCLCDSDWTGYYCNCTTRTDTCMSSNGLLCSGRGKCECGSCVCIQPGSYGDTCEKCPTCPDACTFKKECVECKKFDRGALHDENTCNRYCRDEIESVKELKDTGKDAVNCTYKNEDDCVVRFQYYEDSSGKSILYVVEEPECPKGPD
# T3: human integrin avb8 (human)
# T3 chain 1: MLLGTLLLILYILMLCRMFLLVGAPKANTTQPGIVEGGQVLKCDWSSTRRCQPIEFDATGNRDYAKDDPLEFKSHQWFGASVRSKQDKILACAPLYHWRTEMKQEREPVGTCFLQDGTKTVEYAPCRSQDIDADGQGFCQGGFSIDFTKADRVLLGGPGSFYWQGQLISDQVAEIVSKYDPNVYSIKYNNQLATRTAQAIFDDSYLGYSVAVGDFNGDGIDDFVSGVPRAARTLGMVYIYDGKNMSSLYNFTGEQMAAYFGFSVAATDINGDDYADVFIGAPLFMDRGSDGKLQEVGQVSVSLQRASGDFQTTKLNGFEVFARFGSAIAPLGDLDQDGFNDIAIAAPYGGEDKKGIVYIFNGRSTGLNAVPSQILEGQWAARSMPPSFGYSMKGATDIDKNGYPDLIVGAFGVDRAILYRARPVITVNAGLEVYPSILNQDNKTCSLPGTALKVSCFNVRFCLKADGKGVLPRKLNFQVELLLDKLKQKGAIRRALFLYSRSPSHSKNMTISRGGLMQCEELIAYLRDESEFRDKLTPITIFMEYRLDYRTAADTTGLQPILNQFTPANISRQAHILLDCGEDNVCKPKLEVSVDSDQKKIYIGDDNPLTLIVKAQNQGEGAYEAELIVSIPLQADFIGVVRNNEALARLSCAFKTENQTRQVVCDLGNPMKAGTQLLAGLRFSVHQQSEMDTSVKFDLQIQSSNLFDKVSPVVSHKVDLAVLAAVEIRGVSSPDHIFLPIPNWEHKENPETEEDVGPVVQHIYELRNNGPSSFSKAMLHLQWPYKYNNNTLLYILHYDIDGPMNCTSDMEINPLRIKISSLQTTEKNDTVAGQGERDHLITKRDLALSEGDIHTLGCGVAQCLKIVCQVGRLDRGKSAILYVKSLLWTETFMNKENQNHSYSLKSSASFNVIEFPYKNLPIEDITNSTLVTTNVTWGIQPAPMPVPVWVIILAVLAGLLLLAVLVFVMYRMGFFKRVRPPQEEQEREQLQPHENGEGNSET
# T3 chain 2: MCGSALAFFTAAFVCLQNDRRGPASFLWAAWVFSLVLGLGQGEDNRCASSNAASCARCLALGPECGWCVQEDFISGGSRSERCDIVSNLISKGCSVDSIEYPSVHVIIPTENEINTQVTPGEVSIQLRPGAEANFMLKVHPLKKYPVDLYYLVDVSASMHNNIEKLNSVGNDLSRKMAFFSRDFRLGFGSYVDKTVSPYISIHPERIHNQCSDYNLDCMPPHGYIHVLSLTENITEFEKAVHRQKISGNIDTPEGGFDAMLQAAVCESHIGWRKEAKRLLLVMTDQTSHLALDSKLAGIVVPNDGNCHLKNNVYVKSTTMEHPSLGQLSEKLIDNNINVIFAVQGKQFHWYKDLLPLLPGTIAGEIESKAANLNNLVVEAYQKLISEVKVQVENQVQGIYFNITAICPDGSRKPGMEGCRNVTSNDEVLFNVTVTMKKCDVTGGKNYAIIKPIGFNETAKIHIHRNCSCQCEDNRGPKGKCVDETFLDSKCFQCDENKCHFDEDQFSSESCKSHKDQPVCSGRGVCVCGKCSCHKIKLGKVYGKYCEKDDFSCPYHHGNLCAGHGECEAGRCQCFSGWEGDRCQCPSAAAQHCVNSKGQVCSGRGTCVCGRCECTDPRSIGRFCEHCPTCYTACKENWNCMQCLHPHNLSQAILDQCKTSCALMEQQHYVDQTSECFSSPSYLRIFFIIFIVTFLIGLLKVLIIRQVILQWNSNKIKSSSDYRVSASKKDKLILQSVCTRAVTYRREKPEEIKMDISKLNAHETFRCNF
# Tests used:
# human integrin avb6 [1] = target: T1, human integrin avb6; test: ELISA
# human integrin avb3 = target: T2, human integrin avb3; test: SPR
# human integrin avb8 = target: T3, human integrin avb8; test: SPR
# human integrin avb6 [2] = target: T1, human integrin avb6; test: SPR
Binder,binding result (human integrin avb3),Kd (human integrin avb8) [nM],further results
"Mouse hybridoma ADWA-11 IgG (antibody, V domains shown) VH: EVQLQQSGAELVRPGAFVKLSCKASGFNIKDYYMNWVLQRPEQGLEWIGWIDPDNGNTIYDPKFQGKASITADTSSNTAYLQLSSLTSEDTAVYYCARRLLMDYWGQGTSVTVSS VL: DIVMTQAAPSVPVTPGESVSISCRSTKSLLHFNGNTYLFWFLQRPGQSPQRLIYYMSNLASGVPDRFSGRGSGTDFTLRISRVEAEDVGVYYCMQSLEYPFTFGTGTKLEIK",no binding,–,binding result (human integrin avb6 [1]): no binding
"ADWA11 VH03/VK02 Fab (antibody, V domains shown) VH: EVQLVESGGGLVQPGGSLRLSCAASGFNIKDYYMNWVRQAPGKGLEWVGWIDPDNGNTIYDPKFQGRFTISADNAKNSAYLQMNSLRAEDTAVYYCARRLLMDYWGQGTLVTVSS VL: DIQMTQSPSSLSASVGDRVTITCRSTKSLLHFNGNTYLFWFQQKPGKAPKRLIYYMSNLASGVPSRFSGSGSGTDFTLTISSLQPEDFATYYCMQSLEYPFTFGQGTKVEIK",–,0.37,–
"ADWA11 VH01/VK01 Fab (antibody, V domains shown) VH: EVQLVESGGGLVQPGGSLRLSCAASGFNIKDYYMNWVRQAPGKGLEWVAWIDPDNGNTIYDPKFQGRFTISRDNAKNSLYLQMNSLRAEDTAVYYCARRLLMDYWGQGTLVTVSS VL: DIQMTQSPSSLSASVGDRVTITCRSTKSLLHFNGNTYLFWYQQKPGKAPKRLIYYMSNLASGVPSRFSGSGSGTDFTLTISSLQPEDFATYYCMQSLEYPFTFGQGTKVEIK",–,6.86,–
"ADWA11 VH05-2/VK01 antibody (antibody, V domains shown) VH: EVQLVESGGGLVQPGGSLRLSCAASGFNIKDYYMNWVRQAPGKGLEWVGWIDPDNGNTIYDPKFQGRFTISADTSKNSAYLQMNSLRAEDTAVYYCARRLLMDYWGQGTLVTVSS VL: DIQMTQSPSSLSASVGDRVTITCRSTKSLLHFNGNTYLFWYQQKPGKAPKRLIYYMSNLASGVPSRFSGSGSGTDFTLTISSLQPEDFATYYCMQSLEYPFTFGQGTKVEIK",no binding,–,binding result (human integrin avb6 [2]): no binding
"ADWA11 VH03/VK01 Fab (antibody, V domains shown) VH: EVQLVESGGGLVQPGGSLRLSCAASGFNIKDYYMNWVRQAPGKGLEWVGWIDPDNGNTIYDPKFQGRFTISADNAKNSAYLQMNSLRAEDTAVYYCARRLLMDYWGQGTLVTVSS VL: DIQMTQSPSSLSASVGDRVTITCRSTKSLLHFNGNTYLFWYQQKPGKAPKRLIYYMSNLASGVPSRFSGSGSGTDFTLTISSLQPEDFATYYCMQSLEYPFTFGQGTKVEIK",–,< 0.1,–
"ADWA11 VH02/VK01 Fab (antibody, V domains shown) VH: EVQLVESGGGLVQPGGSLRLSCAASGFNIKDYYMNWVRQAPGKGLEWVAWIDPDNGNTIYDPKFQGRFTISADNAKNSLYLQMNSLRAEDTAVYYCARRLLMDYWGQGTLVTVSS VL: DIQMTQSPSSLSASVGDRVTITCRSTKSLLHFNGNTYLFWYQQKPGKAPKRLIYYMSNLASGVPSRFSGSGSGTDFTLTISSLQPEDFATYYCMQSLEYPFTFGQGTKVEIK",–,1.89,–

# From patent US20220289850 (published 2022)
